Data published in patent US20240400690A1 (BIO THERA SOLUTIONS, published 2024).
Substitutions are numbered along the chain they refer to.

T1: Tim3 (on Tim3-CHO cells) (UniProt Q8TDQ0 22-301, limits assumed)
T1 construct: whole, on cells
T1 sequence (looked up): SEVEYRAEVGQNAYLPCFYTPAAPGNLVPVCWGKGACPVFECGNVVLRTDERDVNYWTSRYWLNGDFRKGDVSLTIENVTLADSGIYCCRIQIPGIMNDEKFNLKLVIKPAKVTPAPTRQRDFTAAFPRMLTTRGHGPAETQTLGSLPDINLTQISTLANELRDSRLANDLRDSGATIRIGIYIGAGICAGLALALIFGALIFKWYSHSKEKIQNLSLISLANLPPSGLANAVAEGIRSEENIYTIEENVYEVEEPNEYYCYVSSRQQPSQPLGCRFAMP

T2: B7-H3 on tumour cells (MDA-MB-468 cells, N87 cells) (UniProt Q5ZPR3 29-534, limits assumed)
T2 construct: whole, on cells
T2 sequence (looked up): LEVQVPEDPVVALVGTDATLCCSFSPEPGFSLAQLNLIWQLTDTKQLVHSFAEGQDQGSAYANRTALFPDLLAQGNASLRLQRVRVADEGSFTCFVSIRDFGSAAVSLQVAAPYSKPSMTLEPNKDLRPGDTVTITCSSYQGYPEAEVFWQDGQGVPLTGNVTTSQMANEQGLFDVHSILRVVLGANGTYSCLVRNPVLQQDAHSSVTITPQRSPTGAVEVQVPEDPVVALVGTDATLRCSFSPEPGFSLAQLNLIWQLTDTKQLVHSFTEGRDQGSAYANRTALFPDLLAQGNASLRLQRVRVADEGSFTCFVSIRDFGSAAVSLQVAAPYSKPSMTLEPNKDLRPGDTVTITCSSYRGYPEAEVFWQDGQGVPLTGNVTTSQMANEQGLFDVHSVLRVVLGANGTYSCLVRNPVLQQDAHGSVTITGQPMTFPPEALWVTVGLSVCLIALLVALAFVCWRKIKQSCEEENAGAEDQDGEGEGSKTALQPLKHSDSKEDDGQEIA

T3: mouse B7-H3 (SinoBiological, 50973-M08H) (mouse, UniProt Q8VE98 29-244)
T3 construct: Bought reagent
T3 sequence (looked up): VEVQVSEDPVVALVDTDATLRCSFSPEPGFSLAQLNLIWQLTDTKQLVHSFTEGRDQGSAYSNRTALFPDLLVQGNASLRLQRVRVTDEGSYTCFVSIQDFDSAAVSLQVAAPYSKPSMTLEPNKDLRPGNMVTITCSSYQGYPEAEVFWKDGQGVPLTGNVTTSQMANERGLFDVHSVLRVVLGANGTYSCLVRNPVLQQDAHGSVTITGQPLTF

T4: Lag3 (on Lag3-CHO cells) (UniProt P18627 23-525, limits assumed)
T4 construct: whole, on cells
T4 sequence (looked up): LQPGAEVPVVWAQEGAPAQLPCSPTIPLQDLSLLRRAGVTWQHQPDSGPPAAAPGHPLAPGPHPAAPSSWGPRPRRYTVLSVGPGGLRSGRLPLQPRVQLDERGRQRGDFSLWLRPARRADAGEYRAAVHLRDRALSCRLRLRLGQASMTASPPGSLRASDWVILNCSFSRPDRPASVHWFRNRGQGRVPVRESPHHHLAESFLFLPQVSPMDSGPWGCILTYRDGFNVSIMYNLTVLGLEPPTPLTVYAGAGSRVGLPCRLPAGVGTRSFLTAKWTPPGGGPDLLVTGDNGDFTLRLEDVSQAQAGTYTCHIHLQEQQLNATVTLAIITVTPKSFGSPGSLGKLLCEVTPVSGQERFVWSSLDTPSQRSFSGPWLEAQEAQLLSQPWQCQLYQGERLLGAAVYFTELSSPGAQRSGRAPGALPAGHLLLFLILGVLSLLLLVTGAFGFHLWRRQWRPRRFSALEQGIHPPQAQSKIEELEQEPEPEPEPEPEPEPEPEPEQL

T5: VISTA (on VISTA-CHO cells) (UniProt Q9H7M9 33-311, limits assumed)
T5 construct: whole, on cells
T5 sequence (looked up): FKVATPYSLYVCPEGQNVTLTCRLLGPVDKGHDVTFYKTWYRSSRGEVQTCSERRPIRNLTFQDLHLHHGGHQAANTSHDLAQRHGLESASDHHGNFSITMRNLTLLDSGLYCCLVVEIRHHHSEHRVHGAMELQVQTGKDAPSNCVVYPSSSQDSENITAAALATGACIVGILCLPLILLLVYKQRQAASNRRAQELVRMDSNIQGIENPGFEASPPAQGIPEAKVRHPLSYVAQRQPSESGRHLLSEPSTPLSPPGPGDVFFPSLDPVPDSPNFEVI

B1: antibody M1 (antibody, human IgG1, kappa, V domains shown)
VH: QVQLQQSGPELVKPGASVRISCKASGYTFTDYDINWVQQRPGQGLEWIGWIFPGDDTTKYNEKFKGRATLTADKSSNTAYMQLNGLTSENSAVYFCARSPSFDYWGQGTLVTVSS
VL: QIVLTQSPAIMSASPGERVTMTCSASSTIGFMYWYQQKPGTSPKRWIYDTSKLASGVPARFSVSGSGTSYSLTISSMEAEDAATYYCHQRSSYPTFGGGTKLEIKR
notes: Chimeric antibody, murine variable regions on the IgG1 constant region; expressed in HEK293F cells; also called chimeric antibody M1
B2: control antibody M30-H1-L4 (antibody, human IgG1, kappa, V domains shown)
VH: QVQLVQSGAEVKKPGSSVKVSCKASGYTFTNYVMHWVRQAPGQGLEWMGYINPYNDDVKYNEKFKGRVTITADESTSTAYMELSSLRSEDTAVYYCARWGYYGSPLYYFDYWGQGTLVTVSS
VL: EIVLTQSPATLSLSPGERATLSCRASSRLIYMHWYQQKPGQAPRPLIYATSNLASGIPARFSGSGSGTDFTLTISSLEPEDFAVYYCQQWNSNPPTFGQGTKVEIKR
notes: Control anti-B7-H3 antibody; also called HIL4
B3: antibody V2 (antibody, human IgG1, kappa, V domains shown)
VH: EVQLVQSGAEVKKSGESLKISCKASGYTFTDYDINWVRQMPGKGLEWIGWIFPGDDTTKYNEKFKGQVTLSADKSTNTAYMQWSSLKASDTAMYYCARSPSFDYWGQGTLVTVSS
VL: QIVLTQSPGTLSLSPGERATLSCSASSTIGFMYWYQQKPGQAPRRWIYDTSKLASGVPDRFSVSGSGTDYTLTISRLEPEDFAVYYCHQRSSYPTFGQGTKVEIKR
notes: Humanized from chimeric antibody M1; expressed in HEK293F cells; also called humanized antibody V2
B4: antibody V1 (antibody, human IgG1, kappa, V domains shown)
VH: B3 VH with I48M, L70I, M81L
VL: B3 VL
notes: Humanized from chimeric antibody M1; expressed in HEK293F cells; also called humanized antibody V1
B5: antibody V3 (antibody, human IgG1, kappa, V domains shown)
VH: B3 VH
VL: B3 VL with V63G
notes: Humanized from chimeric antibody M1; expressed in HEK293F cells; also called humanized antibody V3
B6: antibody V5 (antibody, human IgG1, kappa, V domains shown)
VH: QVQLVQSGAEVKKPGASVKVSCKASGYTFTDYDINWVRQAPGQRLEWIGWIFPGDDTTKYNEKFKGRATLTADKSASTAYMELSSLRSEDTAVYYCARSPSFDYWGQGTLVTVSS
VL: QIVLTQSPSSLSASVGDRVTITCSASSTIGFMYWYQQKPGKAPKRWIYDTSKLASGVPSRFSVSGSGTDYTLTISSLQPEDFATYYCHQRSSYPTFGQGTKVEIKR
notes: Humanized from chimeric antibody M1; expressed in HEK293F cells; also called humanized antibody V5

The binders below were run against T1, Tim3 (on Tim3-CHO cells) (assay: flow cytometry on Tim3-CHO cells, PE goat anti-human IgG Fc secondary; blank 0.2% in P3).
Method: (§1) Cells (VISTA-CHO cells, Tim3-CHO cells or Lag3-CHO cells) in logarithmic phase were collected and centrifuged at 1500 rpm for 5 min, and the supernatant was removed. The cells were resuspended in 1×PBS and centrifuged at 1500 rpm for 5 min, and the supernatant was removed, and then the procedure was repeated once. […]

Binder | % of cells in gate P3 at 100 nM [%]
B1 | 0.8
B2 | 0.4

The binders below were run against T2, B7-H3 on tumour cells (MDA-MB-468 …) (assay: flow cytometry on MDA-MB-468 cells, PE goat anti-human IgG Fc secondary; blank 0.9% in the positive gate).
Method: MDA-MB-468 cells in logarithmic phase were collected and centrifuged at 1500 rpm for 5 min, and the supernatant was removed. The cells were resuspended in 1×PBS and centrifuged at 1500 rpm for 5 min, and the supernatant was removed, and then the procedure was repeated once. MDA-MB-468 cells were added to a V-bottom 96-well plate at 50 μL/well (200,000 cells) and centrifuged at 1500 rpm for 5 min, and PBS was discarded; the humanized antibody diluted in gradient (initial concentration of 100 nM, 3-fold gradient dilution, 1×PBS as the vehicle) was added at 100 μL/well; the cells were resuspended, and incubated on ice for 1 h; after the incubation was completed, the cells were centrifuged at 2000 rpm for 5 min, and the supernatant was removed; the cells were resuspended in 1×PBS added at 200 µL/well and centrifuged again and the supernatant was removed, and the procedure was repeated twice; a PE-labeled goat anti-human IgG Fc secondary antibody (Invitrogen, cat #12-4998-82, diluted with 1×PBS at 1:500) was added at 100 μL/well; the cells were resuspended, and incubated for 30 min on ice in the absence of light; after the incubation was completed, the cells were centrifuged at 2000 rpm for 5 min, and the supernatant was removed; the cells were resuspended in 1×PBS added at 200 μL/well and centrifuged again and the supernatant was removed, and the procedure was repeated twice; 1×PBS was then added at 200 μL/well to resuspend the cells; the detection was performed with a cytoflex flow cytometer (Beckman).

Binder | % of cells in positive gate V1-R at 0.411 nM [%] | % of cells in positive gate V1-R at 1.23 nM [%] | % of cells in positive gate V1-R at 11.11 nM [%] | % of cells in positive gate V1-R at 33.33 nM [%] | % of cells in positive gate V1-R at 3.7 nM [%] | % of cells in positive gate V1-R at 100 nM [%]
B3 | 1.2 | 1.3 | 97.8 | 99.7 | – | –
B4 | 1.4 | 8.6 | 99.5 | 99.6 | 92.7 | 99.7
B5 | 36.8 | 86.4 | 97.2 | 98.9 | 94 | 99.6
B6 | 31.6 | 73.5 | 99.3 | 99.6 | 92.6 | 99.7
B1 | 26.5 | 93.1 | 99.5 | 99.7 | 98.7 | 99.7
B2 | 1.1 | 4 | 97.2 | 98.8 | – | 99.3

Each binder was assayed against T3, mouse B7-H3 (SinoBiological, 50973-M08H) (assay: ELISA, antigen coated at 2 µg/mL; Table 13 prints EC50 as NA).
Method: The day before the experiment, the target antigens cynomolgus monkey B7-H3 (novoprotein CA61), mouse B7-H3 (SinoBiological, 50973-M08H) and hB7-H3-his were each diluted to 2 μg/mL with 1×PBS and added to a ELISA plate (96-well plate) at 100 μL/well (two rows for each antigen), and the wells were coated overnight at 4° C.

Binder | binding result
B5 | no binding

What follows are binders tested against T4, Lag3 (on Lag3-CHO cells) (assay: flow cytometry on Lag3-CHO cells, PE goat anti-human IgG Fc secondary; blank 0.5% in P3).
Method: as §1

Binder | % of cells in gate P3 at 100 nM [%]
B1 | 0.9
B2 | 0.3

These binders were tested against T5, VISTA (on VISTA-CHO cells) (assay: flow cytometry on VISTA-CHO cells, PE goat anti-human IgG Fc secondary; blank 0.1% in P3).
Method: as §1

Binder | % of cells in gate P3 at 100 nM [%]
B1 | 0.6
B2 | 0.2
